Reference: patent US20230312742A1 (Y MABS THERAPEUTICS, published 2023)
Where a chain is given by its changes, count along the chain named. In names and notes the source's numbering stands.

Key:
[1] = target: T1, CD38 on CD38(+) cancer cells (RPMI8226, Raji, Daudi) (UniProt P28907 1-300, limits assumed); assay: flow cytometry on RPMI8226 cells
T1 construct: whole, on cells; Endogenous CD38 on tumour cell lines; also called CD38(+) tumor cells; CD38(+) Raji cells

[2] = target: T2, human CD38 antigen (recombinant human CD38 protein) (human, UniProt P28907 43-300, limits assumed); assay: SPR, BsAb (1 µg/ml) captured on anti-human Fc chip, human CD38 in solution; average, N=6
[3] = target: T1, CD38 on CD38(+) cancer cells (RPMI8226, …); assay: flow cytometry on Daudi cells, goat anti-human IgG fluorochrome-conjugated secondary antibody
[4] = target: T2, human CD38 antigen (recombinant human …); assay: SPR, IgG captured on anti-human Fc, human CD38 in solution;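 note: humanized IgG captured on an amine-coupled anti-human Fc HC30M chip, with human CD38 injected as a dilution series from 1000 nM downward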
[5] = target: T1, CD38 on CD38(+) cancer cells (RPMI8226, …); assay: flow cytometry on Raji cells, detection with an anti-his tag antibody
[6] = target: T1, CD38 on CD38(+) cancer cells (RPMI8226, …); assay: flow cytometry on RPMI 8226 cells, detection with an anti-his tag antibody
[7] = target: T2, human CD38 antigen (recombinant human …); assay: SPR, His-tagged SADA captured on NiHC200M chip, recombinant human CD38 in solution; average
[8] = target: T2, human CD38 antigen (recombinant human …); assay: SPR, His-tagged SADA construct captured on a NiHC200M chip, recombinant human CD38 protein injected
[9] = target: T2, human CD38 antigen (recombinant human …); assay: SPR, antibody captured on Protein-L chip, human CD38 in solution; humanized 8DC3
[10] = target: T2, human CD38 antigen (recombinant human …); assay: SPR, construct captured on immobilised protein-L (HC30M chip), human CD38 antigen flown over
[11] = target: T2, human CD38 antigen (recombinant human …); assay: SPR, His-tagged SADA construct captured on a NiHC200M chip, recombinant human CD38 protein injected; remark: listed apart in the source

B1: 8DC3OK (CD3xCD38 bispecific antibody, IgG-L-scFv format, humanized VL5 and VH8) (bispecific antibody)
light: DIQLTQSPSSLSASVGDRVTITCKASEDIYNRLTWYQQKPGKAPKLLISGATSLETGVPSRFSGSGSGKDYTFTISSLQPEDFATYYCQQYWSNPYTFGQGTKLEIKRTVAAPSVFIFPPSDEQLKSGTASVVCLLNNFYPREAKVQWKVDNALQSGNSQESVTEQDSKDSTYSLSSTLTLSKADYEKHKVYACEVTHQGLSSPVTKSFNRGECGGGGSGGGGSGGGGSGGGGSQVQLVQSGGGVVQPGRSLRLSCKASGYTFTRYTMHWVRQAPGKCLEWIGYINPSRGYTNYNQKFKDRFTISRDNSKNTAFLQMDSLRPEDTGVYFCARYYDDHYSLDYWGQGTPVTVSSGGGGSGGGGSGGGGSGGGGSGGGGSGGGGSDIQMTQSPSSLSASVGDRVTITCSASSSVSYMNWYQQTPGKAPKRWIYDTSKLASGVPSRFSGSGSGTDYTFTISSLQPEDIATYYCQQWSSNPFTFGCGTKLQITR
heavy: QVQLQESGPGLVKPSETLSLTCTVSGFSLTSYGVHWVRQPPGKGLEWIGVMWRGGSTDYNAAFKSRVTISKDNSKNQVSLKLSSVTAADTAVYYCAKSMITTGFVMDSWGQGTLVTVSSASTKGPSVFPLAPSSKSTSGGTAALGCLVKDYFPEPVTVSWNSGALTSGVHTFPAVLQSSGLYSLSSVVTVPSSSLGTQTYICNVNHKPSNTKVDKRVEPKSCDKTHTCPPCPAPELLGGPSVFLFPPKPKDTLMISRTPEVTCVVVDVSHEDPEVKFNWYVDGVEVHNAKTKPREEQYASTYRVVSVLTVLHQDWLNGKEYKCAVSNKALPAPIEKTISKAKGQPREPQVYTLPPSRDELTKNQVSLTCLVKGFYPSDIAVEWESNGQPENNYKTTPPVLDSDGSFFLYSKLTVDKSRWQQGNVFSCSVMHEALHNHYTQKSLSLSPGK
notes: Light chain: anti-CD38 VL-CL-(G4S)4-huOKT3 VH-(G4S)6-huOKT3 VL
With B1 as the binder, how does the EC50 [1] read?
The EC50 was 0.167 µg/mL.

And the “fold weaker EC50 than the chimeric antibody 8DC1OK” value [1]?
Its value is about 2 fold.

What about the Kd [2] of the same binder?
Its Kd is 8.8 nM.

What about the koff [2] of the same binder?
The koff was 0.0018 s⁻¹.

What about the kon [2] of the same binder?
The kon was 210000 M⁻¹ s⁻¹.

What about the “EC50 (read off the curve)” value [3] of the same binder?
Its value is about 0.1 µg/mL.

B2: L4H5 (antibody, V domains shown)
VH: QVQLQESGPGLVKPSETLSLTCTVSGFSLTSYGVHWIRQPPGKGLEWIGVMWRGGSTDYNPSLKSRVTISVDTSKNQFSFKLSSVTAADTAIYYCAKSMITTGFVMDSWGQGTLVTVSS
VL: DIQMTQSPSSLSASVGDRVTITCRASEDIYNRLTWYQQKPGKAPKLLLYGATSLETGVPSRFSGSGSGKDYTLTISSLQPEDFATYYCQQYWSNPYTFGGGTKVEIK
notes: Humanized AT13/5 IgG, VL4 + VH5
With B2 as the binder, how does the Kd [4] read?
Its Kd is 320 nM.

B3: L4H7 (antibody, V domains shown)
VH: B2 VH with Q5K, E6Q, D58N, V67L, F80L, I92V
VL: B2 VL
notes: Humanized AT13/5 IgG, VL4 + VH7
B3 was tested. Which Kd [4] did it give?
The Kd was 870 nM.

B4: L4H6 (antibody, V domains shown)
VH: B2 VH with I48L, D58N, V71K, F80L, I92V
VL: B2 VL
notes: Humanized AT13/5 IgG, VL4 + VH6
Which Kd [4] does the source give for B4 here?
Its Kd is 580 nM.

B5: 8DC-5 (anti-CD38 scFv-(G4S)4-huC825 anti DOTA scFv-linker-P53-linker-His tag) (bispecific antibody)
chain: DIQLTQSPSSLSASVGDRVTITCKASEDIYNRLTWYQQKPGKAPKLLISGATSLETGVPSRFSGSGSGKDYTFTISSLQPEDFATYYCQQYWSNPYTFGCGTKLEIKGGGGSGGGGSGGGGSGGGGSGGGGSGGGGSQVQLQESGPGLVKPSETLSLTCTVSGFSLTSYGVHWVRQPPGKCLEWIGVMWRGGSTDYNAAFKSRVTISKDNSKNQVSLKLSSVTAADTAVYYCAKSMITTGFVMDSWGQGTLVTVSSGGGGSGGGGSGGGGSGGGGSHVQLVESGGGLVQPGGSLRLSCAASGFSLTDYGVHWVRQAPGKGLEWLGVIWSGGGTAYNTALISRFTISRDNSKNTLYLQMNSLRAEDTAVYYCARRGSYPYNYFDAWGCGTLVTVSSGGGGSGGGGSGGGGSGGGGSGGGGSGGGGSQAVVTQEPSLTVSPGGTVTLTCGSSTGAVTASNYANWVQQKPGQCPRGLIGGHNNRPPGVPARFSGSLLGGKAALTLLGAQPEDEAEYYCALWYSDHWVIGGGTKLTVLGTPLGDTTHTSGKPLDGEYFTLQIRGRERFEMFRELNEALELKDAQAGKEPGGSGGAPHHHHHH
notes: SADA construct with VL8 and VH11 (extra disulfide in the anti-CD38 scFv), VL-VH order
How did the “EC50 (read off the curve)” value [5] turn out when B5 was run?
The value was about 0.07 µg/mL.

And the “EC50 (read off the curve)” value [6]?
The value was about 0.05 µg/mL.

What about the Kd [7] of the same binder?
Its Kd is 0.17 nM.

And the kon [7]?
Its kon is 96000 M⁻¹ s⁻¹.

And the Kd [8]?
Its Kd is 0.214 nM.

B6: 8DC1OK (CD3xCD38 bispecific antibody, IgG-L-scFv format, chimeric AT13/5 VL and VH) (bispecific antibody)
light: DIQLTQSPSSFSVSLGDRVTITCKASEDIYNRLTWYQQKPGNAPRLLISGATSLETGVPSRFSGSGSGKDYTLSITSLQTEDVATYYCQQYWSNPYTFGGGTKLEIRRTVAAPSVFIFPPSDEQLKSGTASVVCLLNNFYPREAKVQWKVDNALQSGNSQESVTEQDSKDSTYSLSSTLTLSKADYEKHKVYACEVTHQGLSSPVTKSFNRGECGGGGSGGGGSGGGGSGGGGSQVQLVQSGGGVVQPGRSLRLSCKASGYTFTRYTMHWVRQAPGKCLEWIGYINPSRGYTNYNQKFKDRFTISRDNSKNTAFLQMDSLRPEDTGVYFCARYYDDHYSLDYWGQGTPVTVSSGGGGSGGGGSGGGGSGGGGSGGGGSGGGGSDIQMTQSPSSLSASVGDRVTITCSASSSVSYMNWYQQTPGKAPKRWIYDTSKLASGVPSRFSGSGSGTDYTFTISSLQPEDIATYYCQQWSSNPFTFGCGTKLQITR
heavy: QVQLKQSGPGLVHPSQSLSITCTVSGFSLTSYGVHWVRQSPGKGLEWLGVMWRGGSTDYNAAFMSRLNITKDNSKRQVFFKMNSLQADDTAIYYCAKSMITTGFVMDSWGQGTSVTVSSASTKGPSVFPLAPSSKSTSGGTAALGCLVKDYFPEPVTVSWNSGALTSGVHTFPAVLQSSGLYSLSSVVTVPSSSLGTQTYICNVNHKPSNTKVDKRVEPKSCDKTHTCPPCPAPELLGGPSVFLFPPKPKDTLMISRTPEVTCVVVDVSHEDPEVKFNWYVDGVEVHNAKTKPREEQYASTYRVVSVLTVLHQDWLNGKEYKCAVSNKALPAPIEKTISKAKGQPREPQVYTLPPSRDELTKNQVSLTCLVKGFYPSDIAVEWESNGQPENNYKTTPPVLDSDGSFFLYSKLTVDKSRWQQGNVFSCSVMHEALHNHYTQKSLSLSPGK
notes: Light chain: anti-CD38 VL-CL-(G4S)4-huOKT3 VH-(G4S)6-huOKT3 VL; also called the chimeric antibody 8DC1OK
For B6, which EC50 [1] is on record?
Its EC50 is 0.076 µg/mL.

And the Kd [2]?
Its Kd is 1.6 nM.

What about the koff [2] of the same binder?
Its koff is 0.00076 s⁻¹.

What about the kon [2] of the same binder?
Its kon is 470000 M⁻¹ s⁻¹.

B7: Chimeric (chimeric AT13/5 anti-CD38 IgG) (antibody, V domains shown)
VH: QVQLKQSGPGLVHPSQSLSITCTVSGFSLTSYGVHWVRQSPGKGLEWLGVMWRGGSTDYNAAFMSRLNITKDNSKRQVFFKMNSLQADDTAIYYCAKSMITTGFVMDSWGQGTSVTVSS
VL: DIQLTQSPSSFSVSLGDRVTITCKASEDIYNRLTWYQQKPGNAPRLLISGATSLETGVPSRFSGSGSGKDYTLSITSLQTEDVATYYCQQYWSNPYTFGGGTKLEIR
notes: IgG format, captured on anti-human Fc; chimeric VL + chimeric VH (murine AT13/5 variable regions)
How did the Kd [4] turn out when B7 was run?
The Kd was 2.8 nM.

B8: 8DC-3 (anti-CD38 scFv-(G4S)4-huC825 anti DOTA scFv-linker-P53-linker-His tag) (bispecific antibody)
chain: QVQLQESGPGLVKPSETLSLTCTVSGFSLTSYGVHWVRQPPGKGLEWIGVMWRGGSTDYNAAFKSRVTISKDNSKNQVSLKLSSVTAADTAVYYCAKSMITTGFVMDSWGQGTLVTVSSGGGGSGGGGSGGGGSGGGGSGGGGSGGGGSDIQLTQSPSSLSASVGDRVTITCKASEDIYNRLTWYQQKPGKAPKLLISGATSLETGVPSRFSGSGSGKDYTFTISSLQPEDFATYYCQQYWSNPYTFGQGTKLEIKGGGGSGGGGSGGGGSGGGGSHVQLVESGGGLVQPGGSLRLSCAASGFSLTDYGVHWVRQAPGKGLEWLGVIWSGGGTAYNTALISRFTISRDNSKNTLYLQMNSLRAEDTAVYYCARRGSYPYNYFDAWGCGTLVTVSSGGGGSGGGGSGGGGSGGGGSGGGGSGGGGSQAVVTQEPSLTVSPGGTVTLTCGSSTGAVTASNYANWVQQKPGQCPRGLIGGHNNRPPGVPARFSGSLLGGKAALTLLGAQPEDEAEYYCALWYSDHWVIGGGTKLTVLGTPLGDTTHTSGKPLDGEYFTLQIRGRERFEMFRELNEALELKDAQAGKEPGGSGGAPHHHHHH
notes: SADA construct with VL5 and VH8
Which results are given for B8?
Kd [9]: 31 nM; EC50 (read off the curve) [5]: ~0.06 µg/mL; koff [10]: 0.00085 s⁻¹; kon [10]: 27000 M⁻¹ s⁻¹

B9: 8DC-4 (anti-CD38 scFv-(G4S)4-huC825 anti DOTA scFv-linker-P53-linker-His tag) (bispecific antibody)
chain: B8 chain with G44C, Q249C
notes: SADA construct with VL8 and VH11 (extra disulfide in the anti-CD38 scFv), VH-VL order
With B9 as the binder, how does the “EC50 (read off the curve)” value [5] read?
Its value is about 0.05 µg/mL.

And the “EC50 (read off the curve)” value [6]?
Its value is about 0.07 µg/mL.

And the Kd [7]?
Its Kd is 0.28 nM.

And the kon [7]?
The kon was 89000 M⁻¹ s⁻¹.

And the Kd [11]?
Its Kd is 0.532 nM.
